Results as given in paper PMC5198506, “Mechanistic differences between HIV-1 and SIV nucleocapsid proteins and cross-species HIV-1 genomic RNA recognition”.

Legend:
SIV NC (SIVmne) [1] = experiment: fluorescence anisotropy salt titration; conditions: FA: 20 mM HEPES pH 7.5, 30-750 mM NaCl, 1 mM MgCl2, 20 µM TCEP, 5 mM 2-mercaptoethanol, room temperature, 400 nM NC, 10 nM RNA (Gag: 20 nM RNA, plus 2 mM …)
HIV-1 NC (HIV-1 NL4-3) [2] = molecular target: HIV-1 NC (HIV-1 NL4-3) (UniProt P12493); experiment: fluorescence anisotropy salt titration; conditions: FA: 20 mM HEPES pH 7.5, 30-750 mM NaCl, 1 mM MgCl2, 20 µM TCEP, 5 mM 2-mercaptoethanol, room temperature, 400 nM NC, 10 nM RNA (Gag: 20 nM RNA, plus 2 mM …)
HIV-1 NC (HIV-1 NL4-3) [3] = molecular target: HIV-1 NC (HIV-1 NL4-3) (UniProt P12493); experiment: single-molecule DNA stretching; conditions: FA: 20 mM HEPES pH 7.5, 30-750 mM NaCl, 1 mM MgCl2, 20 µM TCEP, 5 mM 2-mercaptoethanol, room temperature, 400 nM NC, 10 nM RNA (Gag: 20 nM RNA, plus 2 mM …)
SIV NC (SIVmne) [4] = experiment: single-molecule DNA stretching; conditions: FA: 20 mM HEPES pH 7.5, 30-750 mM NaCl, 1 mM MgCl2, 20 µM TCEP, 5 mM 2-mercaptoethanol, room temperature, 400 nM NC, 10 nM RNA (Gag: 20 nM RNA, plus 2 mM …)
HIV-1 NC [5] = molecular target: T1, HIV-1 NC (HIV-1 NL4-3, UniProt P12493 378-432); experiment: fluorescence anisotropy salt titration; Kd(1M) extrapolated to 1 M NaCl; Zeff 3.6 ± 0.9; FA: 20 mM HEPES pH 7.5, 30-750 mM NaCl, 1 mM MgCl2, 20 µM TCEP, 5 mM 2-mercaptoethanol, room temperature, 400 nM NC, 10 nM RNA (Gag: 20 nM RNA, plus 2 mM Tris-HCl pH 7.4); stretching buffer not in material; conditions: protein: recombinant; label: 3' fluorescein (thiosemicarbazide); stem-loops
HIV-1 NC [6] = molecular target: T1, HIV-1 NC; experiment: fluorescence anisotropy salt titration; Kd(1M) extrapolated to 1 M NaCl; Zeff 2.6 ± 0.4; FA: 20 mM HEPES pH 7.5, 30-750 mM NaCl, 1 mM MgCl2, 20 µM TCEP, 5 mM 2-mercaptoethanol, room temperature, 400 nM NC, 10 nM RNA (Gag: 20 nM RNA, plus 2 mM Tris-HCl pH 7.4); stretching buffer not in material; conditions: protein: recombinant; label: 3' fluorescein (thiosemicarbazide); hairpin
HIV-1 NC [7] = molecular target: T1, HIV-1 NC; experiment: fluorescence anisotropy salt titration; Kd(1M) extrapolated to 1 M NaCl; Zeff 2.4 ± 0.4; FA: 20 mM HEPES pH 7.5, 30-750 mM NaCl, 1 mM MgCl2, 20 µM TCEP, 5 mM 2-mercaptoethanol, room temperature, 400 nM NC, 10 nM RNA (Gag: 20 nM RNA, plus 2 mM Tris-HCl pH 7.4); stretching buffer not in material; conditions: protein: recombinant; label: 3' fluorescein (thiosemicarbazide); hairpin

Q: For “AGUCGCUCUGCGGAGAGGCUGGCAGAUUGAGCCCUGGGAGGUUCUCUCCAGCACUAGCAGGUAGAGCCUGGGUGUUCCCUGCUAGACUCUCACCAGCACUUGGCCGGUGCUGGGCAGAGUGACU [SIV TAR RNA]”, which Kd (SIV NC (SIVmne) [1]) is on record?
A: 62 µM

Q: For “CCACGACGGAGUGCUCCUAUAAAGACGCGGGUCGGUACCAGACGGCGUGAGGAGCGGGAGAGGAAGAGGCCUCCGGUUGCAGGUAAGUGCAACACAAAAAAGAAAUAGCUGUCUUUUAUCCAGGAAGGGGUAAUAAGAUAGAGUGG [SIV Psi RNA (WT)]”, which Kd (SIV NC (SIVmne) [1]) is on record?
A: 72 µM

Q: With “GGUCUCUCUGGUUAGACCAGAUCUGAGCCUGGGAGCUCUCUGGCUAACUAGGGAACCCACUGCUUAAGCCUCAAUAAAGCUUGCCUUGAGUGCUCAAAGUAGUG [HIV-1 TARpolyA RNA]” as the molecule, how does the Kd (SIV NC (SIVmne) [1]) read?
A: 82 µM

Q: What does the source list for HIV-1 Psi RNA (WT)?
A: Kd (HIV-1 NC (HIV-1 NL4-3) [2]): 4 µM; Kd (SIV NC (SIVmne) [1]): 3.9 µM

Q: Which results are given for “dsDNA used for single-molecule stretching”?
A: Kd (HIV-1 NC (HIV-1 NL4-3) [3]): 0.0042 µM; Kd (SIV NC (SIVmne) [4]): 0.0055 µM

B1: SIV Psi RNA (WT) (structured_RNA)
RNA: CCACGACGGAGUGCUCCUAUAAAGACGCGGGUCGGUACCAGACGGCGUGAGGAGCGGGAGAGGAAGAGGCCUCCGGUUGCAGGUAAGUGCAACACAAAAAAGAAAUAGCUGUCUUUUAUCCAGGAAGGGGUAAUAAGAUAGAGUGG
Q: Which Kd (HIV-1 NC [5]) does the source give for B1 here?
A: 100 µM

B2: SIV TAR RNA (structured_RNA)
RNA: AGUCGCUCUGCGGAGAGGCUGGCAGAUUGAGCCCUGGGAGGUUCUCUCCAGCACUAGCAGGUAGAGCCUGGGUGUUCCCUGCUAGACUCUCACCAGCACUUGGCCGGUGCUGGGCAGAGUGACU
Q: With B2 as the molecule, how does the Kd (HIV-1 NC [6]) read?
A: 81 µM

B3: HIV-1 TARpolyA RNA (structured_RNA)
RNA: GGUCUCUCUGGUUAGACCAGAUCUGAGCCUGGGAGCUCUCUGGCUAACUAGGGAACCCACUGCUUAAGCCUCAAUAAAGCUUGCCUUGAGUGCUCAAAGUAGUG
Q: How did the Kd (HIV-1 NC [7]) turn out when B3 was run?
A: 120 µM
